Assay results: patent US20260132208A1 (DOMAIN THERAPEUTICS, published 2026)
Residue numbers refer to the chain shown, from its start. Values joined by “and” are separate entries in the source; they are usually repeats but may differ in a detail not shown here. Identical values can stand only once.

B1: anti-CCR8 mAb 1-15 (antibody, V domains shown)
VH: EVQLQQSGPELVKPGASVKISCKTSGYTFTEYTMHWVKQSHGKSLEWIGGINPNNGDTNYNQKFMGKATLTVDKSSSTAYMELRSLTSEDSAVYYCVRRLLRRGAMDYWGQGTSVTVSS
VL: DIVLTQSPASLAVSLGQRATISCRASENVEYYGTSLMQWFQQKPGQPPKLLIYAASNVDSGVPARFSGSGSGTDFSLNIHPVEEDDIAMYFCQQSRKVPWTFGGGTKLDIK
notes: Murine hybridoma mAb
B2: anti-CCR8 mAb 1-2 (antibody, V domains shown)
VH: EVQLVESGGGLVQPKGSLKLSCAASGFTFNTYAMNWVRQAPGKGLEWVARIRSKSNNYATYYADSVKDRFTISRDDSQSMLYLQMNNLKTEDTAMYYCVRGREAYYRYDGGYYAMDYWGQGTSVTVSS
VL: DIVMTQAAPSVPVTPGESVSISCRSSKSLLHSNGNTYLYWFLQRPGQSPQLLIYRMSNLASGVPDRFSGSGSGTAFTLRISRVEAEDVGVYYCMQHLEYPFTFGSGTKLEIK
notes: Murine hybridoma mAb
B3: anti-CCR8 mAb 1-8 (antibody, V domains shown)
VH: B2 VH with K19R, T31A, A63G, S79T, G111D
VL: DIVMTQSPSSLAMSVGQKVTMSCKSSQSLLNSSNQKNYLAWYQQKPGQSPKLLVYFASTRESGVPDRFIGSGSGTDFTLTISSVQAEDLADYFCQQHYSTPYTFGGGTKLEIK
notes: Murine hybridoma mAb
B4: anti-CCR8 mAb 1-12 (antibody, V domains shown)
VH: EVQLVETGGGLVQPKGSLKLSCAASGFTFNANAMNWVRQAPGKGLEWVARIRSKSNNYATYYADSVKDRFTISRDDSQSMLYLQMNNLKTEDTAMYYCVRGSDNYIFYAMDYWGQGTSVTVSS
VL: B2 VL with S105G
notes: Murine hybridoma mAb
B5: anti-CCR8 mAb 1-4 (antibody, V domains shown)
VH: B2 VH with K15T, K19R, T31A, N57D, A63G
VL: B2 VL with P12S, R24T, L97R
notes: Murine hybridoma mAb
B6: anti-CCR8 mAb 1-1 (antibody, V domains shown)
VH: B2 VH with V5L, T31P, K43R, S79D, G111D
VL: B2 VL
notes: Murine hybridoma mAb

The binders below were run against T1, human CCR8 (human, UniProt P51685 1-355) (assay: flow cytometry, inhibition of hCCL1-AF647 (10 nM) binding to hCCR8-CHO cells).
T1 construct: also called hCCR8; CC chemokine receptor 8
Procedure: The hCCR8 transfected CHO cell line was dispatched at a density of 1.105 per well in a 96-well plate. Cells were incubated for 30 min at 4° C. with or without anti-CCR8 mAb tested at 10 μg/mL then diluted at 1/3. Unbound antibodies were washed away with PBS (Gibco, Villebon-sur-yvette, France) supplemented by 2% Fetal Bovine Serum (Invitrogen by Thermofisher Scientific, Illkirch-Graffenstaden, France) and 2 mM EDTA. […] After washing unbound ligands, CCL1 bound detection is quantified on a MacsQuant16 (Miltenyi, Gladbach, Germany) (R1 channel, 5 000 events per acquisition).
For IC₅₀ determination, a concentration response curve is performed using 8 concentrations of mAb. Curves are fitted and IC₅₀ of CCL1 binding blocking activity is calculated using the sigmoidal dose-response (variable slope) model on GraphPad Prism 9 (GraphPad Software, San Diego, CA, USA).

| IC50 | Binder |
| --- | --- |
| 0.75 µg/mL and 5.01 nM | B1 |
| 0.83 µg/mL and 5.55 nM | B2 |
| 2.55 µg/mL and 17.1 nM | B3 |
| 0.85 µg/mL and 5.72 nM | B4 |
| 1.93 µg/mL and 12.9 nM | B5 |
| 1.02 µg/mL and 6.83 nM | B6 |

The binders below were run against T1, human CCR8 (assay: cell-based or functional assay).

| IC50 of CCL1-induced hCCR8 Gi2 signaling (BRET), pH 6.5 | IC50 of CCL1-induced hCCR8 Gi2 signaling (BRET), pH 7.4 | Binder |
| --- | --- | --- |
| 0.03 µg/ml and 0.198 nM | 0.031 µg/ml and 0.21 nM | B2 |
| 0.053 µg/ml and 0.355 nM | 0.063 µg/ml and 0.421 nM | B3 |
| 0.031 µg/ml and 0.208 nM | 0.017 µg/ml and 0.115 nM | B4 |
| 0.034 µg/ml and 0.225 nM | 0.065 µg/ml and 0.434 nM | B5 |
| 0.021 µg/ml and 0.143 nM | 0.024 µg/ml and 0.163 nM | B6 |

Target: T1, human CCR8
Experiment: cell-based or functional assay
Remark: another data set of the same source

| residual hCCL1 (100 nM) Gi2 response, protocol #2, mAb 0.08 µg/mL [%] | residual hCCL1 (100 nM) Gi2 response, protocol #2, mAb 0.4 µg/mL [%] | residual hCCL1 (100 nM) Gi2 response, protocol #2, mAb 10 µg/mL [%] | residual hCCL1 (100 nM) Gi2 response, protocol #3, mAb 0.05 µg/mL [%] | residual hCCL1 (100 nM) Gi2 response, protocol #3, mAb 0.5 µg/mL [%] | residual hCCL1 (100 nM) Gi2 response, protocol #3, mAb 5 µg/mL [%] | Binder |
| --- | --- | --- | --- | --- | --- | --- |
| 99 | 102 | 95 | 102 | 97 | 67 | B1 |
| 60 | 36 | 19 | 74 | 68 | 48 | B2 |
| 70 | 44 | 51 | 78 | 55 | 43 | B3 |
| 99 | 85 | 68 | 86 | 75 | 48 | B4 |
| 72 | 49 | 28 | 75 | 36 | 22 | B5 |
| 81 | 69 | 44 | 77 | 57 | 49 | B6 |

Target: T1, human CCR8
Experiment: cell-based or functional assay
Remark: another data set of the same source

| IC50 of CCL1-induced hCCR8 Gi2 signaling (BRET, HEK-293) | Binder |
| --- | --- |
| 0.019 µg/mL and 0.129 nM | B1 |
| 0.191 nM and 0.029 µg/mL | B2 |
| 0.031 µg/mL and 0.209 nM | B3 |
| 0.015 µg/mL and 0.099 nM | B4 |
| 0.034 µg/mL and 0.227 nM | B5 |
| 0.023 µg/mL and 0.153 nM | B6 |

Target: T1, human CCR8
Experiment: cell-based or functional assay
Remark: another data set of the same source

| extrapolated top plateau of hCCL1 curve with 5 µg/mL mAb, protocol #3 | Binder |
| --- | --- |
| 135000 % of hCCL1 (100 nM) | B1 |
| 640000 % of hCCL1 (100 nM) | B2 |
| 511000 % of hCCL1 (100 nM) | B3 |
| 805000 % of hCCL1 (100 nM) | B4 |
| 313000 % of hCCL1 (100 nM) | B5 |
| 760000 % of hCCL1 (100 nM) | B6 |

What follows are binders tested against T2, pm3 (Y17 sulfated; Y15 and Y16 not sulfated) (assay: ELISA on coated peptide [cont.]).
T2 construct: also called sulfated CCR8 N-terminal peptide pm3
T2 sequence (peptide, as listed by the source): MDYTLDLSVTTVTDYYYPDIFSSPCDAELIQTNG
Procedure: (§1) The specific binding properties of antibodies were evaluated by ELISA with coated CCR8 related peptides (500 ng/ml) in carbonate/bicarbonate buffer. Different peptides were used as described in Table 1 (see Example 1). Each anti-CCR8 mAb was tested at 1 μg/mL then diluted at 1/10. After an incubation at room temperature during 90 min, unbound mAbs were removed by washings. […] After washings, 3,3′,5,5′-tetramethylbenzidine (TMB) (Interchim, Montluçon, France) was added for 15 min. Then the optical density (OD) was determined by using a multiplate reader (Tecan, Lyon, France) and correlated with mAb reactivity on the panel of coated peptides.

| binding result | Binder |
| --- | --- |
| binds | B1 |
| binds | B2 |
| binds | B3 |
| binds | B4 |
| binds | B5 |
| binds | B6 |

What follows are binders tested against T3, pm6 (Y16 and Y17 sulfated; Y15 not sulfated) (assay: ELISA on coated peptide [cont.]).
T3 construct: also called sulfated CCR8 N-terminal peptide pm6
T3 sequence (peptide, as listed by the source): as above
Procedure: as §1

| binding result | Binder |
| --- | --- |
| binds | B1 |
| binds | B2 |
| binds | B3 |
| binds | B4 |
| binds | B5 |
| binds | B6 |

Each binder was assayed against T4, pm8 (Y15, Y16 and Y17 sulfated) (assay: ELISA on coated peptide [cont.]).
T4 construct: also called sulfated CCR8 N-terminal peptide pm8
T4 sequence (peptide, as listed by the source): as above
Procedure: as §1

| binding result | Binder |
| --- | --- |
| binds | B1 |
| binds | B2 |
| binds | B3 |
| binds | B4 |
| binds | B5 |
| binds | B6 |

These binders were tested against T5, pm5 (Y15 and Y17 sulfated; Y16 not sulfated) (assay: ELISA on coated peptide [cont.]).
T5 construct: also called sulfated CCR8 N-terminal peptide pm5
T5 sequence (peptide, as listed by the source): as above
Procedure: as §1

| binding result | Binder |
| --- | --- |
| binds | B1 |
| binds | B2 |
| binds | B3 |
| binds | B4 |
| binds | B5 |
| binds | B6 |

These binders were tested against T1, human CCR8 (assay: flow cytometry, hCCR8-transfected CHO-K1 cells).
Procedure: Briefly, 1.10⁵ cells per well in a 96 well plate were incubated with a dilution of unconjugated anti-CCR8 mAb at 10 μg/mL then diluted at 1/3.33, 4 dilution points (during 30 min at 4° C.). In human activated T cells model, prior to mAb incubation, cells were first incubated with 200 nM of hCCL1 (R&D Systems, Minneapolis, MN, USA) or buffer PBS (Invitrogen by Thermofisher Scientific, Illkirch-Graffenstaden, France) supplemented by 2% Fetal Bovine Serum (Invitrogen by Thermofisher Scientific, Illkirch-Graffenstaden, France) and 2 mM EDTA (Invitrogen by Thermofisher Scientific, Illkirch-Graffenstaden, France) during 1 hour at 4° C. To determine EC50 value, 8 concentrations of anti-CCR8 mAb were tested. Unbound antibodies were washed away with PBS (Invitrogen by Thermofisher Scientific, Illkirch-Graffenstaden, France) supplemented by 2% Fetal Bovine Serum (Invitrogen by Thermofisher Scientific, Illkirch-Graffenstaden, France) and 2 mM EDTA (Invitrogen by Thermofisher Scientific, Illkirch-Graffenstaden, France). Subsequently, cells are centrifuged (5 min at 400 g) and bound antibody is detected with F(ab′)2-Goat anti-Mouse IgG (H+L) Cross-Adsorbed Secondary Antibody, Alexa Fluor 488 (dilution 1/500) (Invitrogen by Thermofisher Scientific, Illkirch-Graffenstaden, France) or with F(ab′)₂-Goat anti-Human IgG Fc Secondary Antibody, PE (Invitrogen by Thermofisher Scientific, Illkirch-Graffenstaden, France) (dilution 1/1000) at 4° C. for 30 min. Detection reagent is washed away and cells are centrifuged (5 min at 400 g) and resuspended in 30 μL PBS. Bound detection antibody is quantified on a MacsQuant16 (Miltenyi, Gladbach, Germany) (B1 or B2 channel, 5000 events per acquisition). During the experiment, the respective isotype mAb controls (mouse IgG1, mouse IgG2a, mouse IgG2b, mouse IgG3 or human IgG1) (Biolegend, Amsterdam, The Netherlands) are included to exclude any unspecific binding events. EC50 values were determined via nonlinear fit “log (agonist) vs.response—Variable slope (four parameters)” function of Graphpad prism. EC50 values were not constantly determined in the same experiments.

| % positive cells [%] | MFI fold change to isotype ctrl [fold] | Binder |
| --- | --- | --- |
| 73.4 | 6.52 | B1 |
| 90.6 | 22.7 | B2 |
| 68.5 | 5.12 | B3 |
| 67.8 | 6.11 | B4 |
| 66.8 | 5.06 | B5 |
| 72.8 | 6.32 | B6 |
